Experimental findings from article PMC10707181, “Neuronal Scaffold Protein ARMS Interacts with Synaptotagmin-4 C2AB through the Ankyrin Repeat Domain with an Unexpected Mode” (International Journal of Molecular Sciences, 2023) are described below.

In general, Kd refers to a measure of binding affinity in units of concentration.

Assay [1] deals with T1, ARMS R1-11 K180A (rat, UniProt Q9EQG6 1-365, K180A).
T1 sequence: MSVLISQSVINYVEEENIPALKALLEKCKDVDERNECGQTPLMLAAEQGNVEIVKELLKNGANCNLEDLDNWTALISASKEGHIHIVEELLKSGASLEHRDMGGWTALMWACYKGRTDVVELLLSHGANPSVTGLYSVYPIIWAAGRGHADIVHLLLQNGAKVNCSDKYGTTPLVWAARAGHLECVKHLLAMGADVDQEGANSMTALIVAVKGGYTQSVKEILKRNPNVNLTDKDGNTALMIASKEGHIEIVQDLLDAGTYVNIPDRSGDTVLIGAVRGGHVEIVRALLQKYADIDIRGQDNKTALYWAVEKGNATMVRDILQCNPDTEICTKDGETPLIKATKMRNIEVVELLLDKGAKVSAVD
As to the kind of experiment: ITC. On the technique in general: In ITC the heat of successive injections is recorded.

For assay [2], the target named is T2, ARMS ankyrin repeats 1–11 (R1-11, residues 1–365) (rat, UniProt Q9EQG6 1-365).
T2 construct: ARMS (Kidins220), rat, UniProt Q9EQG6, residues 1-365: ankyrin repeats 1-11; also called ARMS R1-11; ARMS R1-11 WT; source: E. coli BL21 (DE3), purified (Ni-NTA, size-exclusion chromatography)
T2 sequence (looked up): T1 sequence with A180K
Description: ITC; ARMS proteins (200 μM) in the syringe, Syt4 proteins (20 μM) in the cell; 25 °C; 50 mM Tris, 100 mM NaCl, 1 mM EDTA, 1 mM DTT, pH 7.8; one-site binding model. The note with it: both partners purified.

For assay [3], the target named is T3, ARMS R1-11 K180A (rat, UniProt Q9EQG6 1-365, K180A).
T3 construct: ARMS (Kidins220), rat, UniProt Q9EQG6, residues 1-365 (R1-11) with K180A; also called ARMS K180A; source: E. coli BL21 (DE3), purified (Ni-NTA, size-exclusion chromatography)
T3 sequence (looked up): T1 sequence
The description is as above. The note with it: both partners purified.

Assay [4] has as its target T4, ARMS protein N-terminal region (NT, residues 1–455) (rat, UniProt Q9EQG6 1-455).
T4 construct: ARMS (Kidins220), rat, UniProt Q9EQG6, residues 1-455: N-terminal region with the entire ankyrin repeat domain; also called ARMS NT; Kidins220 NT; source: E. coli BL21 (DE3), purified (Ni-NTA, size-exclusion chromatography)
T4 sequence (looked up): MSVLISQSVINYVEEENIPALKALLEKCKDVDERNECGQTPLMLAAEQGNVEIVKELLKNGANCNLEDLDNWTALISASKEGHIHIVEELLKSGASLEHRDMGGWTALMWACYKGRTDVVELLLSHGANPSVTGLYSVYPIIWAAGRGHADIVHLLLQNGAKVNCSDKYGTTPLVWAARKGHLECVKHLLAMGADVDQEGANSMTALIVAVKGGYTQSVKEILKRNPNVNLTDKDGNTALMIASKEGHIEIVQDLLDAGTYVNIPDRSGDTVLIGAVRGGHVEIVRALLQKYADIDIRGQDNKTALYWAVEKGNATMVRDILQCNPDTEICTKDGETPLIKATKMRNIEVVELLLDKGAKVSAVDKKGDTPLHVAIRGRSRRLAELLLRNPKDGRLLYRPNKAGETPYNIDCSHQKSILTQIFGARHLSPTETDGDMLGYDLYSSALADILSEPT
The assay is described as above. The note with it: both partners purified.

Substitutions are numbered along the chain they refer to. Names may count otherwise.

B1: Syt4 132–425 (domain or fragment, human, UniProt Q9H2B2-1 132-425, looked up)
chain: ESVSPESLKSSTSLTSEEKQEKLGTLFFSLEYNFERKAFVVNIKEARGLPAMDEQSMTSDPYIKMTILPEKKHKVKTRVLRKTLDPAFDETFTFYGIPYTQIQELALHFTILSFDRFSRDDIIGEVLIPLSGIELSEGKMLMNREIIKRNVRKSSGRGELLISLCYQSTTNTLTVVVLKARHLPKSDVSGLSDPYVKVNLYHAKKRISKKKTHVKKCTPNAVFNELFVFDIPCEGLEDISVEFLVLDSERGSRNEVIGQLVLGAAAEGTGGEHWKEICDYPRRQIAKWHVLCDG
notes: source: E. coli BL21 (DE3), purified (Ni-NTA, size-exclusion chromatography)
B1 showed a Kd with ARMS R1-11 K180A [1] of 11 µM. The binding result (in assay [2]; with ARMS R1-11 K180A [3]) was “binds” throughout.

B2: Syt4 C2AB (residues 151–425) (domain or fragment, human, UniProt Q9H2B2-1 151-425, looked up)
chain: QEKLGTLFFSLEYNFERKAFVVNIKEARGLPAMDEQSMTSDPYIKMTILPEKKHKVKTRVLRKTLDPAFDETFTFYGIPYTQIQELALHFTILSFDRFSRDDIIGEVLIPLSGIELSEGKMLMNREIIKRNVRKSSGRGELLISLCYQSTTNTLTVVVLKARHLPKSDVSGLSDPYVKVNLYHAKKRISKKKTHVKKCTPNAVFNELFVFDIPCEGLEDISVEFLVLDSERGSRNEVIGQLVLGAAAEGTGGEHWKEICDYPRRQIAKWHVLCDG
notes: also called Syt4 CAB; source: E. coli BL21 (DE3), purified (Ni-NTA, size-exclusion chromatography)
The molecule B2 returned a Kd in assay [2] of roughly 7 µM.

B3: Syt4 132–425 K284A (domain or fragment, human, UniProt Q9H2B2-1 132-425, looked up)
chain: B1 chain with K153A
notes: also called Syt4 K284A variant; source: E. coli BL21 (DE3), purified (Ni-NTA, size-exclusion chromatography)
As for B3, in assay [2], the binding result is “binds”.

B4: Syt4 132–425 Q186A (domain or fragment, human, UniProt Q9H2B2-1 132-425, looked up)
chain: B1 chain with Q55A
notes: also called Syt4 Q186A; source: E. coli BL21 (DE3), purified (Ni-NTA, size-exclusion chromatography)
For B4, the binding result in assay [2] is listed as “binds”.

B5: full length of the cytoplasmic region of Syt4 (CD, residues 41–425) (domain or fragment, human, UniProt Q9H2B2-1 41-425, looked up)
chain: KSSKSNKTPPYKFVHVLKGVDIYPENLNSKKKFGADDKNEVKNKPAVPKNSLHLDLEKRDLNGNFPKTNLKPGSPSDLENATPKLFLEGEKESVSPESLKSSTSLTSEEKQEKLGTLFFSLEYNFERKAFVVNIKEARGLPAMDEQSMTSDPYIKMTILPEKKHKVKTRVLRKTLDPAFDETFTFYGIPYTQIQELALHFTILSFDRFSRDDIIGEVLIPLSGIELSEGKMLMNREIIKRNVRKSSGRGELLISLCYQSTTNTLTVVVLKARHLPKSDVSGLSDPYVKVNLYHAKKRISKKKTHVKKCTPNAVFNELFVFDIPCEGLEDISVEFLVLDSERGSRNEVIGQLVLGAAAEGTGGEHWKEICDYPRRQIAKWHVLCDG
notes: also called Synaptotagmin-4 CD; source: E. coli BL21 (DE3), purified (Ni-NTA, size-exclusion chromatography)
Molecule B5 yielded a Kd in assay [4] of roughly 17 µM.
